Assays:
[1] = target: human BTLA, endogenous protein of peripheral blood B and T cells of healthy donors (human, UniProt Q7Z6A9 31-289); assay: cell-based or functional assay
[2] = target: T1, cynomolgus BTLA expressed on CHO cells (cynomolgus, UniProt A0A2K5W7M7 31-289); assay: flow cytometry on CHO cells expressing cynomolgus BTLA, PE-anti-huFc detection
T1 construct: whole, on cells; also called cyno BTLA; CHO cells expressing cynomolgus BTLA
T1 sequence: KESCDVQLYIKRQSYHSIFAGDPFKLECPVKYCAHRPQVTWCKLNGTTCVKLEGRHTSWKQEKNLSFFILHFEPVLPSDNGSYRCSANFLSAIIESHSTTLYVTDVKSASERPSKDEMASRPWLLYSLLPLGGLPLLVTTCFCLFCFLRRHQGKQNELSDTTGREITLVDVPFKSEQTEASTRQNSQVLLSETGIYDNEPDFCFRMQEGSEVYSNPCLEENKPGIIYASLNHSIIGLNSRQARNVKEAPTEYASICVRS

[3] = target: T2, human BTLA (analyte of the BIAcore measurements) (human, UniProt Q7Z6A9 31-156, limits assumed); assay: BIAcore, antibody captured on an anti-CH1 chip
T2 sequence: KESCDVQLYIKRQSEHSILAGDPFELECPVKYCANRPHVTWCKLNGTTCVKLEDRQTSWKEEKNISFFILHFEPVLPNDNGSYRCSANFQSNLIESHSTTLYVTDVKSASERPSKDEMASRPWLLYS
Text: For BIAcore, the test antibodies were captured on an anti-CH1 chip.

[4] = target: T2, human BTLA (analyte of the BIAcore …); assay: BIAcore
[5] = target: T2, human BTLA (analyte of the BIAcore …); assay: BIAcore surface plasmon resonance

B1: hu Mab8D5 Fab' fragment (Fab, V domains shown)
VH: EVQLVESGGGLVQPGGSLRLSCAASGFTISSYDMHWVRQATGKGLEWVSVIGPAGDTYYPGSVKGRFTISRENAKNSLYLQMNSLRAGDTAVYYCAREGMAAHNYYGMDVWGQGTTVTVSS
VL: not shown
- relative potency of the Fab′ against the full Mab [1]: ~10 fold less

B2: hu Mab8D5 G1 (IgG1 version of 8D5) (antibody, V domains shown)
VH: B1 VH
VL: not shown
notes: same variable regions as hu Mab8D5; also called IgG1 version of hu Mab8D5; 8D5 IgG1 Mab
- EC50 [2]: ~12 nM

B3: hu Mab8D5 (IgG4 version of 8D5, fully human monoclonal agonist anti-BTLA antibody) (antibody, V domains shown)
VH: B1 VH
VL: not shown
notes: Rest: human IgG4/kappa; Re-expressed in CHO-S cells; also called hu Mab8D5 G4; 8D5 (G4) agonist
- koff [3]: 0.00019 s⁻¹
- kon [3]: 79000 M⁻¹ s⁻¹
- koff [4]: 0.000137 s⁻¹
- kon [4]: 45800 M⁻¹ s⁻¹
- EC50 [2]: ~12 nM
- Kd [5]: ~2 nM

From patent US20160222114A1 (published 2016)
